Measured values as given in patent US20060235215A1 (published 2006).

T1: Beta-Expansin EXPB2, prey clone aa 80-218 (Oryza sativa, UniProt O24230 80-218)
T1 construct: prey; AD fusion; input trait library; two clones; also called OsEXPB2; PN19902
T1 sequence: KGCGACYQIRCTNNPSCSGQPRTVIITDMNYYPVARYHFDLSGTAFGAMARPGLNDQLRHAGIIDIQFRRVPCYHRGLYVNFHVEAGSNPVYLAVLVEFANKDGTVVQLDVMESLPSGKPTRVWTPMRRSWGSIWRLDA

T2: Novel Protein 23053, Fragment, Similar to Arabidopsis Putative Na+-Dependent Inorganic Phosphate … (Oryza sativa, UniProt Q8W0H5 141-320)
T2 construct: prey; AD fusion; input trait library; two clones; also called OsPN23053
T2 sequence: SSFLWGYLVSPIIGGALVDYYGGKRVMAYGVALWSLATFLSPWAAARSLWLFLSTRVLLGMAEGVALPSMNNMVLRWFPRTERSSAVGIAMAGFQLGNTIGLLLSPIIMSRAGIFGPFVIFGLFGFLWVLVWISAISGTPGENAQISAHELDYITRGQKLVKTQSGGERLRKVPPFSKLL

T3: Novel Protein PN23485, Similar to Hordeum vulgare Coproporphyrinogen III Oxidase, chloroplast precursor, prey … (Oryza sativa, UniProt Q7XPL2 165-318)
T3 construct: prey; AD fusion; output trait library; also called OsPN23485
T3 sequence: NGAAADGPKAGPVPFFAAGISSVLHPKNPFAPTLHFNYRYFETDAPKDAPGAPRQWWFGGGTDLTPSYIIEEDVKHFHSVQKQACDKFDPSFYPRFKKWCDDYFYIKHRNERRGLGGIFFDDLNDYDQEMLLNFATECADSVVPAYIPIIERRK

B1: Novel Protein PN23226, Callose synthase, prey clone aa 345-432 (other)
chain: WFMSNQETSFVTIGQRVLANPLRVRFHYGHPDIFDRLFHLTRGGVSKASKIINLSEDIFAGFNSTLREGNVTHHEYMQVGKGRDVGLN
notes: prey; AD fusion; output trait library; also called OsPN23226
B2: O. sativa Defender Against Apoptotic Death 1, bait clone aa 30-115 (other)
chain: DLYVVFAVATALIQVVYMGIVGSFPFNSFLSGVLSCIGTAVLAVCLRIQVNKDNKEFKDLPPERAFADFVLCNLVLHLVIMNFLG
notes: bait; text says OsDAD1 has 114 aa; also called OsDAD1; PN20251
B3: Hypothetical Protein 006819-2510, Similar to Hemerocallis Senescence-Related Protein 5, bait fragment aa 1-150 (other)
chain: MAFRLSNSLLGILNAVTFLLSVPVLGGGIWLATRADGTECERYFSAPVIAFGVFLLLVSLAGLVGACCRVNCLLWFYLVAMFVLIVVLFCFTVFAFVVTNKGAGEAVSGRGYKEYRLGDYSNWLQKRMENSKNWNRIRSCLQDSKVCKKL
notes: bait; also called Os006819-2510; PN20462
B4: Hypothetical Protein 006819-2510, Similar to Hemerocallis Senescence-Related Protein 5, bait fragment aa 1-273 (other)
chain: MAFRLSNSLLGILNAVTFLLSVPVLGGGIWLATRADGTECERYFSAPVIAFGVFLLLVSLAGLVGACCRVNCLLWFYLVAMFVLIVVLFCFTVFAFVVTNKGAGEAVSGRGYKEYRLGDYSNWLQKRMENSKNWNRIRSCLQDSKVCKKLQDKNWDRTQFFKADLSPLESGCCKPPSSCNFLYVSGTNWTKVPTNSSDPDCNTWVDDGTQLCYNCQSCKAGAVATLKRDWKRVAVVCIVFLVFIVIVYSLGCCAFRNNRRDNRGAYRGAAWKG
notes: as for B3

Key:
Experiment in all cases: yeast two-hybrid
[1] = target: B4
[2] = target: T1, Beta-Expansin EXPB2, prey clone aa …
[3] = target: T2, Novel Protein 23053, Fragment, Similar …
[4] = target: T4, O. sativa Histone Deacetylase HD1, prey clone aa 90-221 (Oryza sativa, UniProt Q7Y0Y8 90-221)
T4 construct: prey; AD fusion; output trait library; also called OsAAK01712; PN24059

[5] = target: T3, Novel Protein PN23485, Similar to …

T4 sequence (Q7Y0Y8 90-221): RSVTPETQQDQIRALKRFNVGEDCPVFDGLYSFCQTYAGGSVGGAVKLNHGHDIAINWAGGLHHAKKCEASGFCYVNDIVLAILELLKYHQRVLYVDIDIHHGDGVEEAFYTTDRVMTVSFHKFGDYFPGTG

B1: binds [1].

B2: binds [2]; binds [3].

B3: binds [4].

B4: binds [5].
